Patent US20200299347A1 (Merck KGaA, published 2020)

How the values were obtained:
NGF = experiment: cell-based or functional assay
FGFR3 = experiment: cell-based or functional assay

NGF, sequence (P01138 122-241): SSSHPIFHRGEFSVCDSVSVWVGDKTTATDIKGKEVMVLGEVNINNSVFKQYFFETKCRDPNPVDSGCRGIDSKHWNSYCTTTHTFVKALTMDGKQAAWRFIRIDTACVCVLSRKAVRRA

B1: FGF18_scFv fasinumab (LH) (other)
chain: EENVDFRIHVENQTRARDDVSRKQLRLYQLYSRTSGKHIQVLGRRISARGEDGDKYAQLLVETDTFGSQVRIKGKETEFYLCMNRKGKLVGKPDGTSKECVFIEKVLENNYTALMSAKYSGWYVGFTKKGRPRKGPKTRENQQDVHFMKRYPKGQPELQKPFKYTTVTKGGGGSGGGGSGGGGSDIQMTQSPSSLSASAGDRVTITCRASQAIRNDLGWYQQKPGKAPKRLIYAAFNLQSGVPSRFSGSGSGTEFTLTISSLQPEDLASYYCQQYNRYPWTFGQGTKVEIKGGGGSGGGGSGGGGSQVQLVQSGAEVKKPGASVKVSCKVSGFTLTELSIHWVRQAPGKGLEWMGGFDPEDGETIYAQKFQGRVTMTEDTSTDTAYMELTSLRSEDTAVYYCSTIFGVVTNFDNWGQGTLVTVSS
- anti-NGF IC50 (nM), U2OS TrkA_p75 assay; construct from HEK293 (NGF): 0.62 nM
- FGF18 EC50 (nM), BaF3/FGFR3 assay; construct from HEK293 (FGFR3): 0.06 nM
